Measured values: US20150044209A1

Columns and labels:
human insulin (human) [1] = biological target: human insulin (human) (UniProt P01308); test: SPR (Biacore 3000), multi-cycle, insulin titrated over amine-coupled Trap, steady-state affinity model, n=4; insulin titrated over immobilized Trap B; steady-state affinity model; n = 4
[2] = biological target: ligand-immobilized surfaces (hIGF-I, mIGF-I and hIGF-II); test: SPR, multi-cycle, Trap flowed over ligand-immobilized surfaces; ligand not named
human insulin (human) [3] = biological target: human insulin (human) (UniProt P01308); test: SPR (Biacore 3000), multi-cycle, insulin titrated over amine-coupled Trap, steady-state affinity model, n=4
mouse IGF-1 (mouse) = mouse IGF-1 (mouse) (UniProt P05017); test: SPR, multi-cycle, Trap flowed over amine-coupled ligand, 1:1 kinetic model, n=4
human IGF-2 (human) = human IGF-2 (human) (UniProt P01344); test: as above
Sequence of human IGF-2 (human) (P01344 25-91 limits assumed): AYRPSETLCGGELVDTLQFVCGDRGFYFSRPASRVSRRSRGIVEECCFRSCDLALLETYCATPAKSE

Sequence of human insulin (human) (P01308 25-54 limits assumed, chain 1 of 2): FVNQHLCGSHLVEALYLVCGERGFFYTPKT
Sequence of human insulin (human) (P01308 90-110 limits assumed, chain 2 of 2): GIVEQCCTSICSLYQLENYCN
Sequence of mouse IGF-1 (mouse) (P05017 49-118 limits assumed): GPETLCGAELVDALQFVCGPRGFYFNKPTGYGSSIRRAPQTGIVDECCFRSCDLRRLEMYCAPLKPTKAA

Substance “Trap B: His-tagged h-sIGF1R purified from 293 cells (from UniProt P08069 31-935) (receptor)” has a Kd (human insulin (human) [1]) of 10 µM.

Work on “Trap F: h-sIGF1R-Fc, purified from CHO cells using protein A, pH 4.0 elution (Fc fusion)” yielded a koff [2] of 0.00043 s⁻¹.

“Trap G: h-sIGF1R-Fc, purified from CHO cells using protein A, pH 3.5 elution (Fc fusion)” was tested, and the koff [2] was 0.00015 s⁻¹.

“Trap D: h-sIGF1R, purified from CHO cells by calcium hydroxyapatite (CHT) column followed by gel filtration (GF) (from UniProt P08069 31-935) (receptor)” was tested, and the Kd (human insulin (human) [3]) was 16 µM, the Kd (mouse IGF-1 (mouse)) was 0.01 µM and the Kd (human IGF-2 (human)) was 0.016 µM.
